Drawing on patent US20220289816A1, “IMMUNOTHERAPY WITH B*07 RESTRICTED PEPTIDES AND COMBINATION OF PEPTIDES AGAINST CANCERS AND RELATED METHODS” (Immatics Biotechnologies GmbH, priority 2018, published 2022), this text covers Peptide exchange for 45 substances.

The target of the assay is HLA-B*07 (Homo sapiens, UniProt P01889). The assay can be described thus: MHC binding assay (UV-ligand exchange, ELISA of stabilized MHC complexes). Conditions: peptide exchange yield on HLA-B*07, UV-ligand exchange. The essentials:
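Binding is reported as exchange yield: an ELISA with HRP-conjugated anti-β2m (A450, TMB) quantified how much test peptide stabilized MHC after UV cleavage of a photolabile placeholder peptide. Exchange monomers were diluted 100-fold and captured on streptavidin-coated plates for 1 h at 37 °C.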
“454 (SPDPAHLESL; listed as Homo sapiens) [compound 454]”: the Peptide exchange entry is on record as “++++ (>75% = ++++)”.

With “455 (FPVQATIDF; listed as Homo sapiens) [compound 455]”, the Peptide exchange result is recorded as “++++ (>75% = ++++)”.

As to “456 (VPVSHPVLTL; listed as Homo sapiens) [compound 456]”, the Peptide exchange result is “+++ (>50 = +++)”. Under “457 (RPPLSQRHTF; listed as Homo sapiens) [compound 457]” stands “++++ (>75% = ++++)”; under “458 (VPIPTHYFVVL; listed as Homo sapiens) [compound 458]”, “++++ (>75% = ++++)”; under “459 (SPAPWRPWI; listed as Homo sapiens) [compound 459]”, “++++ (>75% = ++++)”. The result for “460 (APLMPLGKTL; listed as Homo sapiens) [compound 460]” reads “++++ (>75% = ++++)”; that for “461 (MPHLGPGILL; listed as Homo sapiens) [compound 461]”, “++++ (>75% = ++++)”. Under “462 (MPLLADVRL; listed as Homo sapiens) [compound 462]” stands “++++ (>75% = ++++)”; under “463 (LPTDLFNSVM; listed as Homo sapiens) [compound 463]”, “++++ (>75% = ++++)”. With “464 (VPFVPRTSV; listed as Homo sapiens) [compound 464]”, the Peptide exchange entry is given as “+++ (>50 = +++)”. The result for “465 (VPKSLPYVL; listed as Homo sapiens) [compound 465]” reads “++++ (>75% = ++++)”. For “466 (SPMEAILVSRL; listed as Homo sapiens) [compound 466]”, the Peptide exchange entry is recorded as “++++ (>75% = ++++)”. Regarding “467 (VPRNQDWLGVSRQL; listed as Homo sapiens) [compound 467]”, the Peptide exchange result is given as “++++ (>75% = ++++)”.

Regarding “468 (LPSLHVLVL; listed as Homo sapiens) [compound 468]”, the Peptide exchange result is recorded as “++++ (>75% = ++++)”. As for “469 (LPLDTRTSI; listed as Homo sapiens) [compound 469]”, the Peptide exchange entry is “++++ (>75% = ++++)”. Consider “470 (RPNGEVKSEL; listed as Homo sapiens) [compound 470]”, for which the Peptide exchange result was “++++ (>75% = ++++)”. Under “471 (LPLLAGTLLL; listed as Homo sapiens) [compound 471]” stands “++ (>20% = ++)”; under “472 (LPMPAITWY; listed as Homo sapiens) [compound 472]”, “++ (>20% = ++)”; under “473 (LPGEREAAL; listed as Homo sapiens) [compound 473]”, “++++ (>75% = ++++)”. Under “474 (VPKADLLTL; listed as Homo sapiens) [compound 474]” stands “++++ (>75% = ++++)”. The result for “475 (IPLEIQKL; listed as Homo sapiens) [compound 475]” reads “+ (>10% = +)”.

Take “476 (EPNPVEEIF; listed as Homo sapiens) [compound 476]”: the Peptide exchange result is reported as “++ (>20% = ++)”. The result for “477 (NPVPVITWYKDNRL; listed as Homo sapiens) [compound 477]” reads “++++ (>75% = ++++)”; that for “478 (APKFISPASQL; listed as Homo sapiens) [compound 478]”, “++++ (>75% = ++++)”. Under “479 (APHAGGALL; listed as Homo sapiens) [compound 479]” stands “++++ (>75% = ++++)”. Under “480 (VPAAPTKAL; listed as Homo sapiens) [compound 480]” stands “+++ (>50 = +++)”; under “481 (SPARALLLALA; listed as Homo sapiens) [compound 481]”, “+++ (>50 = +++)”; under “482 (QPSLKKIIL; listed as Homo sapiens) [compound 482]”, “++++ (>75% = ++++)”. On to “483 (KPAAAGVKKVA; listed as Homo sapiens) [compound 483]”, for which the Peptide exchange entry is “+++ (>50 = +++)”. The result for “484 (LPASAEPKGTM; listed as Homo sapiens) [compound 484]” reads “++ (>20% = ++)”.

Turning to “486 (TPTRPLPSA; listed as Homo sapiens) [compound 486]”, the Peptide exchange result is “++ (>20% = ++)”. Under “487 (IPWFIKTAF; listed as Homo sapiens) [compound 487]” stands “++++ (>75% = ++++)”; under “488 (LPLGGLPLLI; listed as Homo sapiens) [compound 488]”, “+++ (>50 = +++)”; under “489 (WPNHIMLVL; listed as Homo sapiens) [compound 489]”, “++++ (>75% = ++++)”. Under “490 (APRGPAQGEAA; listed as Homo sapiens) [compound 490]” stands “++++ (>75% = ++++)”; under “491 (MPEADLKRIF; listed as Homo sapiens) [compound 491]”, “++ (>20% = ++)”; under “492 (IPFSVDEI; listed as Homo sapiens) [compound 492]”, “+ (>10% = +)”. Take “493 (LPLQQYKLV; listed as Homo sapiens) [compound 493]”: the Peptide exchange result is given as “+ (>10% = +)”. Under “494 (LPLRAVNLNL; listed as Homo sapiens) [compound 494]” stands “+++ (>50 = +++)”. The result for “495 (SPSYTQASL; listed as Homo sapiens) [compound 495]” reads “++++ (>75% = ++++)”; that for “496 (MPAVSGPGPLF; listed as Homo sapiens) [compound 496]”, “+++ (>50 = +++)”; that for “497 (YVVKPLHPF; listed as Homo sapiens) [compound 497]”, “+++ (>50 = +++)”. The result for “498 (RPQPQPRPAL; listed as Homo sapiens) [compound 498]” reads “++++ (>75% = ++++)”; that for “499 (QPVLPSPAC; listed as Homo sapiens) [compound 499]”, “++++ (>75% = ++++)”.
